# Starred links: 1 amine or outer side, 2 acyl side, 3 side chain; linkers in the order of their positions; H or OH if unused. Positions of bridges follow the written chain, without caps; N, C: chain ends. Groups on a side chain read outwards from the residue. No end group written: not given here. *: point of attachment. C20 diacid = O=C(O)CCCCCCCCCCCCCCCCCCC(=O)*; C18 diacid = O=C(O)CCCCCCCCCCCCCCCCC(=O)*; γGlu = O=C(O)[C@H](CCC(=O)[*:2])N[*:1]; AEEA = NCCOCCOCC(=O)O
# T1: human amylin 3(a) receptor (human calcitonin receptor + RAMP-3) (human, UniProt P30988 25-474; O60896 24-148)
# T1 sequence (looked up) 1: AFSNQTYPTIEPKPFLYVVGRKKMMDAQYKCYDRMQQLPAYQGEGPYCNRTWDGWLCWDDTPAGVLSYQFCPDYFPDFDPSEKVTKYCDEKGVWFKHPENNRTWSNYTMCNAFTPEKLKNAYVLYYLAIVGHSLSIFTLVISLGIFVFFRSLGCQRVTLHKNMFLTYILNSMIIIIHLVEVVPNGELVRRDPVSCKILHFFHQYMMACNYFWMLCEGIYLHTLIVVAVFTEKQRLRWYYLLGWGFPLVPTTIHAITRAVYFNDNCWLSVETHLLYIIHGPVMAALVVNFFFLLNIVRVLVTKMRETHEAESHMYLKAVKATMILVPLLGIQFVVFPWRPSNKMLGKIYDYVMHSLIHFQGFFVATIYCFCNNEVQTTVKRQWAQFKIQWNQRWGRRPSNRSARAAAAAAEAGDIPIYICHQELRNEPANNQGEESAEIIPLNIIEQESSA
# T1 sequence (looked up) 2: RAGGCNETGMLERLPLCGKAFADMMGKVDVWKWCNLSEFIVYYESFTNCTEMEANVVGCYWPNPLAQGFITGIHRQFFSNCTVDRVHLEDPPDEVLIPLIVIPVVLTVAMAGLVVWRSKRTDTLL
# T2: human calcitonin (a) receptor (human, UniProt P30988 25-474)
# T2 sequence (looked up): T1 sequence (looked up) 1
# B1: N-alpha-[(S)-4-Carboxy-4-(19-carboxynonadecanoylamino)butyryl]-[des1,Glu14,His17,His35]-pramlintide (peptide)
# peptide: {C20 diacid-γGlu}-CNTATCATQRLAEFLHHSSNNFGPILPPTNVGSHTY-NH2
# modifications: disulfide 1-6
# SMILES: CC[C@H](C)[C@H](NC(=O)[C@@H]1CCCN1C(=O)CNC(=O)[C@H](Cc1ccccc1)NC(=O)[C@H](CC(N)=O)NC(=O)[C@H](CC(N)=O)NC(=O)[C@H](CO)NC(=O)[C@H](CO)NC(=O)[C@H](Cc1c[nH]cn1)NC(=O)[C@H](Cc1c[nH]cn1)NC(=O)[C@H](CC(C)C)NC(=O)[C@H](Cc1ccccc1)NC(=O)[C@H](CCC(=O)O)NC(=O)[C@H](C)NC(=O)[C@H](CC(C)C)NC(=O)[C@H](CCCNC(=N)N)NC(=O)[C@H](CCC(N)=O)NC(=O)[C@@H](NC(=O)[C@H](C)NC(=O)[C@@H]1CSSC[C@H](NC(=O)CC[C@H](NC(=O)CCCCCCCCCCCCCCCCCCC(=O)O)C(=O)O)C(=O)N[C@@H](CC(N)=O)C(=O)N[C@@H]([C@@H](C)O)C(=O)N[C@@H](C)C(=O)N[C@@H]([C@@H](C)O)C(=O)N1)[C@@H](C)O)C(=O)N[C@@H](CC(C)C)C(=O)N1CCC[C@H]1C(=O)N1CCC[C@H]1C(=O)N[C@H](C(=O)N[C@@H](CC(N)=O)C(=O)N[C@H](C(=O)NCC(=O)N[C@@H](CO)C(=O)N[C@@H](Cc1c[nH]cn1)C(=O)N[C@H](C(=O)N[C@@H](Cc1ccc(O)cc1)C(N)=O)[C@@H](C)O)C(C)C)[C@@H](C)O
# B2: N-alpha-[(S)-4-Carboxy-4-(19-carboxynonadecanoylamino)butyryl]-[Glu14,His17,Arg18,His35]-pramlintide (peptide)
# peptide: {C20 diacid-γGlu}-KCNTATCATQRLAEFLHRSSNNFGPILPPTNVGSHTY-NH2
# modifications: disulfide 2-7
# SMILES: CC[C@H](C)[C@H](NC(=O)[C@@H]1CCCN1C(=O)CNC(=O)[C@H](Cc1ccccc1)NC(=O)[C@H](CC(N)=O)NC(=O)[C@H](CC(N)=O)NC(=O)[C@H](CO)NC(=O)[C@H](CO)NC(=O)[C@H](CCCNC(=N)N)NC(=O)[C@H](Cc1c[nH]cn1)NC(=O)[C@H](CC(C)C)NC(=O)[C@H](Cc1ccccc1)NC(=O)[C@H](CCC(=O)O)NC(=O)[C@H](C)NC(=O)[C@H](CC(C)C)NC(=O)[C@H](CCCNC(=N)N)NC(=O)[C@H](CCC(N)=O)NC(=O)[C@@H](NC(=O)[C@H](C)NC(=O)[C@@H]1CSSC[C@H](NC(=O)[C@H](CCCCN)NC(=O)CC[C@H](NC(=O)CCCCCCCCCCCCCCCCCCC(=O)O)C(=O)O)C(=O)N[C@@H](CC(N)=O)C(=O)N[C@@H]([C@@H](C)O)C(=O)N[C@@H](C)C(=O)N[C@@H]([C@@H](C)O)C(=O)N1)[C@@H](C)O)C(=O)N[C@@H](CC(C)C)C(=O)N1CCC[C@H]1C(=O)N1CCC[C@H]1C(=O)N[C@H](C(=O)N[C@@H](CC(N)=O)C(=O)N[C@H](C(=O)NCC(=O)N[C@@H](CO)C(=O)N[C@@H](Cc1c[nH]cn1)C(=O)N[C@H](C(=O)N[C@@H](Cc1ccc(O)cc1)C(N)=O)[C@@H](C)O)C(C)C)[C@@H](C)O
# B3: N-epsilon17-[2-(2-{2-[2-(2-{2-[(S)-4-Carboxy-4-(17-carboxyheptadecanoylamino)butyrylamino]ethoxy}ethoxy)acetylamino]ethoxy}ethoxy)acetyl]-[Glu14,Lys17]-pramlint … (peptide)
# peptide: KCNTATCATQRLAEFLK([AEEA-AEEA-γGlu-C18 diacid])HSSNNFGPILPPTNVGSNTY-NH2
# modifications: disulfide 2-7; N-terminus assumed
# SMILES: CC[C@H](C)[C@H](NC(=O)[C@@H]1CCCN1C(=O)CNC(=O)[C@H](Cc1ccccc1)NC(=O)[C@H](CC(N)=O)NC(=O)[C@H](CC(N)=O)NC(=O)[C@H](CO)NC(=O)[C@H](CO)NC(=O)[C@H](Cc1c[nH]cn1)NC(=O)[C@H](CCCCNC(=O)COCCOCCNC(=O)COCCOCCNC(=O)CC[C@H](NC(=O)CCCCCCCCCCCCCCCCC(=O)O)C(=O)O)NC(=O)[C@H](CC(C)C)NC(=O)[C@H](Cc1ccccc1)NC(=O)[C@H](CCC(=O)O)NC(=O)[C@H](C)NC(=O)[C@H](CC(C)C)NC(=O)[C@H](CCCNC(=N)N)NC(=O)[C@H](CCC(N)=O)NC(=O)[C@@H](NC(=O)[C@H](C)NC(=O)[C@@H]1CSSC[C@H](NC(=O)[C@@H](N)CCCCN)C(=O)N[C@@H](CC(N)=O)C(=O)N[C@@H]([C@@H](C)O)C(=O)N[C@@H](C)C(=O)N[C@@H]([C@@H](C)O)C(=O)N1)[C@@H](C)O)C(=O)N[C@@H](CC(C)C)C(=O)N1CCC[C@H]1C(=O)N1CCC[C@H]1C(=O)N[C@H](C(=O)N[C@@H](CC(N)=O)C(=O)N[C@H](C(=O)NCC(=O)N[C@@H](CO)C(=O)N[C@@H](CC(N)=O)C(=O)N[C@H](C(=O)N[C@@H](Cc1ccc(O)cc1)C(N)=O)[C@@H](C)O)C(C)C)[C@@H](C)O
# B4: N-alpha-[(S)-4-Carboxy-4-(19-carboxynonadecanoylamino)butyryl]-[His1,Glu14,His17,Arg18,His35]-pramlintide (peptide)
# peptide: {C20 diacid-γGlu}-HCNTATCATQRLAEFLHRSSNNFGPILPPTNVGSHTY-NH2
# modifications: disulfide 2-7
# SMILES: CC[C@H](C)[C@H](NC(=O)[C@@H]1CCCN1C(=O)CNC(=O)[C@H](Cc1ccccc1)NC(=O)[C@H](CC(N)=O)NC(=O)[C@H](CC(N)=O)NC(=O)[C@H](CO)NC(=O)[C@H](CO)NC(=O)[C@H](CCCNC(=N)N)NC(=O)[C@H](Cc1c[nH]cn1)NC(=O)[C@H](CC(C)C)NC(=O)[C@H](Cc1ccccc1)NC(=O)[C@H](CCC(=O)O)NC(=O)[C@H](C)NC(=O)[C@H](CC(C)C)NC(=O)[C@H](CCCNC(=N)N)NC(=O)[C@H](CCC(N)=O)NC(=O)[C@@H](NC(=O)[C@H](C)NC(=O)[C@@H]1CSSC[C@H](NC(=O)[C@H](Cc2c[nH]cn2)NC(=O)CC[C@H](NC(=O)CCCCCCCCCCCCCCCCCCC(=O)O)C(=O)O)C(=O)N[C@@H](CC(N)=O)C(=O)N[C@@H]([C@@H](C)O)C(=O)N[C@@H](C)C(=O)N[C@@H]([C@@H](C)O)C(=O)N1)[C@@H](C)O)C(=O)N[C@@H](CC(C)C)C(=O)N1CCC[C@H]1C(=O)N1CCC[C@H]1C(=O)N[C@H](C(=O)N[C@@H](CC(N)=O)C(=O)N[C@H](C(=O)NCC(=O)N[C@@H](CO)C(=O)N[C@@H](Cc1c[nH]cn1)C(=O)N[C@H](C(=O)N[C@@H](Cc1ccc(O)cc1)C(N)=O)[C@@H](C)O)C(C)C)[C@@H](C)O
# B5: N-epsilon25-[2-(2-{2-[2-(2-{2-[(S)-4-Carboxy-4-(17-carboxyheptadecanoylamino)butyrylamino]ethoxy}ethoxy)acetylamino]ethoxy}ethoxy)acetyl]-[Glu14,Ser21,Lys25]-pr … (peptide)
# peptide: KCNTATCATQRLAEFLVHSSSNFGK([AEEA-AEEA-γGlu-C18 diacid])ILPPTNVGSNTY-NH2
# modifications: disulfide 2-7; N-terminus assumed
# SMILES: CC[C@H](C)[C@H](NC(=O)[C@H](CCCCNC(=O)COCCOCCNC(=O)COCCOCCNC(=O)CC[C@H](NC(=O)CCCCCCCCCCCCCCCCC(=O)O)C(=O)O)NC(=O)CNC(=O)[C@H](Cc1ccccc1)NC(=O)[C@H](CC(N)=O)NC(=O)[C@H](CO)NC(=O)[C@H](CO)NC(=O)[C@H](CO)NC(=O)[C@H](Cc1c[nH]cn1)NC(=O)[C@@H](NC(=O)[C@H](CC(C)C)NC(=O)[C@H](Cc1ccccc1)NC(=O)[C@H](CCC(=O)O)NC(=O)[C@H](C)NC(=O)[C@H](CC(C)C)NC(=O)[C@H](CCCNC(=N)N)NC(=O)[C@H](CCC(N)=O)NC(=O)[C@@H](NC(=O)[C@H](C)NC(=O)[C@@H]1CSSC[C@H](NC(=O)[C@@H](N)CCCCN)C(=O)N[C@@H](CC(N)=O)C(=O)N[C@@H]([C@@H](C)O)C(=O)N[C@@H](C)C(=O)N[C@@H]([C@@H](C)O)C(=O)N1)[C@@H](C)O)C(C)C)C(=O)N[C@@H](CC(C)C)C(=O)N1CCC[C@H]1C(=O)N1CCC[C@H]1C(=O)N[C@H](C(=O)N[C@@H](CC(N)=O)C(=O)N[C@H](C(=O)NCC(=O)N[C@@H](CO)C(=O)N[C@@H](CC(N)=O)C(=O)N[C@H](C(=O)N[C@@H](Cc1ccc(O)cc1)C(N)=O)[C@@H](C)O)C(C)C)[C@@H](C)O
# Molecular target: T1, human amylin 3(a) receptor (human …)
# Experiment: cell-based or functional assay
row,Amylin receptor human EC50,Binder
1,0.365 nM,B1
2,0.0685 nM,B2
3,0.456 nM,B3
4,0.066 nM,B4
5,0.089 nM,B5

# Molecular target: T2, human calcitonin (a) receptor
# Experiment: cell-based or functional assay
row,CTa receptor human EC50,Binder
1,0.286 nM,B1
2,0.0965 nM,B2
3,4.3 nM,B3
4,0.11 nM,B4
5,0.101 nM,B5
